{"source": "paper PMC9971246", "about": "“The activation mechanism and antibody binding mode for orphan GPR20” (Cell Discovery, 2023)", "binders": {"B1": {"name": "Fab046, Fab fragment of the anti-GPR20 antibody Ab046 (Fab, V domains shown)", "VH": "QVQLQQSGAELAKPGSSVKISCKASGYTFTSYYISWIKQTTGQGLKYIGFINPGSGHTNYNEKFKGKATLTVDKSSSTAFMQLSSLTPDDSAIYYCARGAGGFLRIITKFDYWGQGVMVTVSS", "VL": "DTVLTQSPALAVSLGQRVTISCRASKSVSTYIHWYQQRSGQQPKLLIYSASNLESGVPSRFSGSGSGTDFTLTIDPVEPDDIANYYCQQINELPYTFGAGTKLELK", "notes": "modelled in the deposited structures PDB 8HS2 (VH + CH1) and PDB 8HSC (VH); modelled in the deposited structures PDB 8HS2 (intact light chain) and PDB 8HSC (VL); also called IgG046; source: Trichuplusia ni Hi5 insect cells (baculovirus, pFastBacDual), from the supernatant, purified (Ni-NTA, SEC)"}}, "target": "T1, N-terminal BRIL-fused wild-type human GPR20 (human, UniProt Q99678)", "T1 construct": "human GPR20, wild type, UniProt Q99678; codon-optimized gene in pFastBac1; Construct order: haemagglutinin signal peptide, Flag tag, BRIL, GPR20, HRV 3C protease site, 10x His; No cleavage with HRV 3C is described; BRIL is written as a carrier under tags, not as a part; also called WT GPR20; ligand-free GPR20; source: Trichuplusia ni Hi5 insect cells (baculovirus), co-expressed with DNGαi and …", "T1 sequence (Q99678 whole entry, the tested form may be a part)": "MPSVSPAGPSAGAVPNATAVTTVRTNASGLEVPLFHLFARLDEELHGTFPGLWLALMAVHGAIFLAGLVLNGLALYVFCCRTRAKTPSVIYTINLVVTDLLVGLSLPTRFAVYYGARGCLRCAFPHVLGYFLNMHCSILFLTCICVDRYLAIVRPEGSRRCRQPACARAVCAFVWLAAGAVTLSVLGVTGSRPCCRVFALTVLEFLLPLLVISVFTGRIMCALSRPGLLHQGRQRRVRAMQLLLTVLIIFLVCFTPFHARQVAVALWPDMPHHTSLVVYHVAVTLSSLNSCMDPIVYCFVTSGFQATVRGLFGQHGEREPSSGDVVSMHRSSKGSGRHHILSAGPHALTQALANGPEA", "assay": "cryo-EM structure; GPR20-Gi-Fab046 complex, pair of Fab046 and GPR20; TALON eluate (GPR20-Gi complex) mixed with purified Fab046 1:1.5 for 6 h, SEC in 20 mM HEPES pH 7.5, 100 mM NaCl, LMNG/GDN/CHS, 100 μM TCEP; 3.22 Å", "settings": "both partners purified", "data": [{"binder": "B1", "values": [{"measurement": "binding result", "value": "binds"}]}]}
